From US20230332136A1, “IL-17 RECEPTOR MODULATOR SCREENING SYSTEM” (New York University, priority 2022, published 2023)
Values belong to the molecule of their own block, whether it stands above or below them.

Key:
[1] = molecular target: T1, hIL-17RA/RC (Homo sapiens, UniProt Q8NAC3+Q96F46); test: hADIR-17 dmCherry reporter assay (clonal cell line); assay type: cell-based; conditions: activator screen, increasing doses (FIG. 12)
T1 construct: expressed in transfected cells; host or cells: MEF cells stably transduced with retroviral constructs (clonal hADIR-17 line)
T1 sequence (Q96F46 33-866): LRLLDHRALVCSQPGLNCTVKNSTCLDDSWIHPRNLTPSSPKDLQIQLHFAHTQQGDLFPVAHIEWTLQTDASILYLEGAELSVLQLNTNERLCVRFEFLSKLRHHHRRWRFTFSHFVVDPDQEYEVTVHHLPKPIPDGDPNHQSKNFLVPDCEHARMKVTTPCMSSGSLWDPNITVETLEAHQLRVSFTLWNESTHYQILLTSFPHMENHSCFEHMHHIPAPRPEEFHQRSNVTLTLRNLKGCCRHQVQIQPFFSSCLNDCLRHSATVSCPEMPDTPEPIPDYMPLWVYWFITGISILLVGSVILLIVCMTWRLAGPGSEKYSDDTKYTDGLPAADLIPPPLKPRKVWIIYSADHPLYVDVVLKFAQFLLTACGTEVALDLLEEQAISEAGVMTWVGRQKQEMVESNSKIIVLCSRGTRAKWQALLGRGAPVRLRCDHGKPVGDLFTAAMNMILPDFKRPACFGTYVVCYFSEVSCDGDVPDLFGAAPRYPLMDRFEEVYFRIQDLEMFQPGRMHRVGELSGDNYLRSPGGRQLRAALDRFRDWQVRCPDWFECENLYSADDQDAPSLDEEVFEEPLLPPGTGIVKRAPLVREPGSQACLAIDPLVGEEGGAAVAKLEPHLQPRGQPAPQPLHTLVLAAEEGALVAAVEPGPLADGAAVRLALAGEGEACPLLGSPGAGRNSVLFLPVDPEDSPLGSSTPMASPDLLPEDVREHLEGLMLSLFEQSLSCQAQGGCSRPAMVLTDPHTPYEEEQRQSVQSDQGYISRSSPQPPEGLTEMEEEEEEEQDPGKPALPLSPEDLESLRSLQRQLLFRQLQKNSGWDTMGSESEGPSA
T1 sequence (Q8NAC3 21-705 isoform Q8NAC3-3 limits assumed): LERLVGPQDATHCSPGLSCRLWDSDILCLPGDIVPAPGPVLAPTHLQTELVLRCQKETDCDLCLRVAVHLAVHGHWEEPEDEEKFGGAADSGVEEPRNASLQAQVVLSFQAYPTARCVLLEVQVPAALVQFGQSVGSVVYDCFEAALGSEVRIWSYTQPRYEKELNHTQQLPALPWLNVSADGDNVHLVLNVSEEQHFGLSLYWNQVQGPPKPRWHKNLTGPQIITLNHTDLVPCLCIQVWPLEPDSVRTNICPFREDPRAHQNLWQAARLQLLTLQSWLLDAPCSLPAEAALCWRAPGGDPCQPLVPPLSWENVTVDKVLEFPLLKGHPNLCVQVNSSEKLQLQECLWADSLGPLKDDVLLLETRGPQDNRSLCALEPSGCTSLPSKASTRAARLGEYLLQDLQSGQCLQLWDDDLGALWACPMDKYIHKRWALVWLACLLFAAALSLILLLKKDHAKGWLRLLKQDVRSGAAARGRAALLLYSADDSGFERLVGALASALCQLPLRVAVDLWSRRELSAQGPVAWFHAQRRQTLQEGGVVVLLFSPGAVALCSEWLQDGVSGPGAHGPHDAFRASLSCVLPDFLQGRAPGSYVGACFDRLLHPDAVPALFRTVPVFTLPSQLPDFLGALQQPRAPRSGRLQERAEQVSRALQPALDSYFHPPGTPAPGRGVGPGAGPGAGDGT
Method: FIG. 9 provides a graphical depiction of constructs for use with human IL-17 receptors. Similar retroviral transfer plasmid constructs as mouse, with human cDNA sequences replacing mouse cDNA. Exogenous hIL-17RA is provided for a functional hADIR system. hIL-17RC, RB, RE constructs are added last separately to MEF cells already stably transduced with the other three required components, generating 3 independent cell lines.
(§1) Mouse constructs were produced as depicted in the panels of FIG. 1. Human sequence constructs were produced as in the panels of FIG. 9, where mouse cDNA constructs were replaced by human cDNA constructed. In the mouse ADIR system exogenous IL-17RC was not provided because the cell line (mouse embryonic fibroblasts) have endogenous IL-17RC expression. In the hADIR system, human components used for the hADIR system (hRA, hRC, hRB, hAct1) were expressed from added polynucleotides.
The data reflected in the Figures utilized a reporter system specifically designed for Act1-dependent IL-17 signaling pathways. The reporter system is based at least in part on the principle that the engagement of active cognate ligands, and the interaction between Act1 and IL-17 receptors is required for active signaling of IL-17A/F, IL-17E, and IL-17C. The protein-protein-interaction (PPI) based reporter system is highly specific and easily scalable. The disclosure is illustrated using mouse and human systems. For the data presented in the Figures, the system comprised a three-part reporter system specifically designed for detecting IL-17A/F, IL-17E, and IL-17C signaling. The PPI-based reporter system provides for detecting active signaling, and is specific for each of the IL-17 family cytokines. […] Each of the retroviral vectors can contain a unique selection or fluorescent marker to enable efficient generation and maintenance of stable cell lines (for example, Puromycin resistance for m/hIL-17RC(RB, RE)-TSC-tTA; EBFP for m/hAct1-TEV; Neomycin resistance and mVenus fluorescence for TRE-dmCherry-PEST, and Thy1.1 for m/hRA).

[2] = molecular target: T2, IL-17RA/RC (Mus musculus, UniProt Q60943+Q8K4C2); test: mADIR-17 dmCherry reporter assay in MEF cells (flow cytometry); assay type: cell-based; conditions: for dmCherry signal produced: after 24 hrs (FIG. 7)
T2 construct: Full length IL-17RC in the purified ADIR system; expressed in transfected cells; host or cells: mouse embryonic fibroblasts (MEF), retrovirally transduced
T2 sequence (Q60943 32-864): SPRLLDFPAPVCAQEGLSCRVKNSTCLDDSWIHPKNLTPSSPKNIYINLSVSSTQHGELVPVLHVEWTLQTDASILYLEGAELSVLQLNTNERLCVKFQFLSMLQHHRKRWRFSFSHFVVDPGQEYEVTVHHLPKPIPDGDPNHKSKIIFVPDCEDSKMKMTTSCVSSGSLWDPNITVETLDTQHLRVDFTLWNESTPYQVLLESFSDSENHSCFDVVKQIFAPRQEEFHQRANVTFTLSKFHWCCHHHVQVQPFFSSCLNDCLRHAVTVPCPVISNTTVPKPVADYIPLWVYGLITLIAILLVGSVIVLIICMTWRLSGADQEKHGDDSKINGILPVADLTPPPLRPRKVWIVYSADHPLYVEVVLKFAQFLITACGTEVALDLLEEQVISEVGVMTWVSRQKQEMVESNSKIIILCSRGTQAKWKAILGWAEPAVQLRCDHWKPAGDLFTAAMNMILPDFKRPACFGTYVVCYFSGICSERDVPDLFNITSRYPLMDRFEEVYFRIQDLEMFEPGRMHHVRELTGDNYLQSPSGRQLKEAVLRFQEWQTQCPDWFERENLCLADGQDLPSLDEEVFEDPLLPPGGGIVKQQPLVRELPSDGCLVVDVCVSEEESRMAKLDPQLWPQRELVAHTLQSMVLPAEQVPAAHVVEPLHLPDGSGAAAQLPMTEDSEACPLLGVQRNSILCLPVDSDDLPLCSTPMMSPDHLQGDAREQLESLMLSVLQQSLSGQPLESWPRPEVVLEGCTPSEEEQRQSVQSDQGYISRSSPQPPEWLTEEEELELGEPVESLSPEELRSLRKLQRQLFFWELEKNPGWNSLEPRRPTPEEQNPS
T2 sequence (Q8K4C2 22-698): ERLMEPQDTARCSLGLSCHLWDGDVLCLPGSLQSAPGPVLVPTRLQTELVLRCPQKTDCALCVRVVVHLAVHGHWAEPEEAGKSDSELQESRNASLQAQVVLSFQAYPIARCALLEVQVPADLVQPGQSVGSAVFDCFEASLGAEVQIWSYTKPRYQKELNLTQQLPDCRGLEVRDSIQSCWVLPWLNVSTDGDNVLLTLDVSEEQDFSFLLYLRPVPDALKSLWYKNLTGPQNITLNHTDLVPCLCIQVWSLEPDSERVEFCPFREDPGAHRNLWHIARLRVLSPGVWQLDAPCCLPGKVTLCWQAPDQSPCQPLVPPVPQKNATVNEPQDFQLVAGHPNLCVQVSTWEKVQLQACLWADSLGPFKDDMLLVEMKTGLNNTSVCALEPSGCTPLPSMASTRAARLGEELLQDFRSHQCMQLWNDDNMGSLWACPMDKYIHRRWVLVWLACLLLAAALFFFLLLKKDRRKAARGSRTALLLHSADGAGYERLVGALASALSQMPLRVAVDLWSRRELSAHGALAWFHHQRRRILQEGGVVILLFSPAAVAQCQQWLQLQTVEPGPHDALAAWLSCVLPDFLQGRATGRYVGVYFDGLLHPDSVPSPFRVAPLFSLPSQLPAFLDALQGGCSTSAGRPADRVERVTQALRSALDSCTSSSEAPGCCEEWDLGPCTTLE
From the text: Unless defined otherwise herein, all technical and scientific terms used in this disclosure have the same meaning as commonly understood by one of ordinary skill in the art to which this disclosure pertains. Where the term “ADIR” is used herein it means ACT1-Dependent IL-17 Receptor Modulator Screening System. The preface “m” means mouse and the prefix “h” means human.
as §1
The data reflected in the Figures utilized a reporter system specifically designed for Act1-dependent IL-17 signaling pathways. The reporter system is based at least in part on the principle that the engagement of active cognate ligands, and the interaction between Act1 and IL-17 receptors is required for active signaling of IL-17A/F, IL-17E, and IL-17C. The protein-protein-interaction (PPI) based reporter system is highly specific and easily scalable. The disclosure is illustrated using mouse and human systems. For the data presented in the Figures, the system comprised a three-part reporter system specifically designed for detecting IL-17A/F, IL-17E, and IL-17C signaling. The PPI-based reporter system provides for detecting active signaling, and is specific for each of the IL-17 family cytokines. The system that is responsive to binding of IL-17A and IL-17F comprises (1) an Act1-tobacco etch virus (TEV) protease fusion protein, which upon active IL-17A/F binding to the IL-17RA/RC receptor heterodimer on a target cell, will be recruited to (2) IL-17RC fused with a TEV cleavage site(TSC)-tTA (a transcriptional transactivator that binds to tetracycline responsive element, or TRE), releasing tTA, which will subsequently translocate into the nucleus where a (3) TRE-dmCherry-PEST (destabilized mCherry) element is integrated into the genome. tTA binds to the TRE to drive dmCherry expression in the target modified cell. The three described components, Act1-TEV, IL-17RC-TSC-tTA, and TRE-dmCherry-PEST, along with IL-17RA, can be delivered by retro or lenti-viral vectors or guide-RNA directed nucleases, or recombinase systems, or by homologous recombination, into mouse embryonic fibroblasts (MEF) or other mammalian cell lines, establishing stable reporter cell lines. Using the same principle, IL-17RC-TSC-tTA can be replaced with IL-17RB-TSC-tTA in the described system to provide for IL-17E (IL-25) binding, and with IL-17RE-TSC-tTA for detecting IL-17C binding. A parallel approach involves attaching the fusion protein of —TSC-tTA to the RA component and three independent system cell lines generated by supplementing RC/RB/RE, Act1-TEV, and TRE-dmCherry reporter components. Each of the retroviral vectors can contain a unique selection or fluorescent marker to enable efficient generation and maintenance of stable cell lines (for example, Puromycin resistance for m/hIL-17RC(RB, RE)-TSC-tTA; EBFP for m/hAct1-TEV; Neomycin resistance and mVenus fluorescence for TRE-dmCherry-PEST, and Thy1.1 for m/hRA).

Molecule: hIL-17A: human IL-17A cytokine, cognate ligand in the hADIR-17 system
dmCherry signal response of hADIR-17 clone to ligand [1]: dose-dependent response

B2: IL-17F: mouse IL-17 family cytokine, cognate ligand of IL-17RA/RC (protein, UniProt Q7TNI7 29-161, looked up)
Interleukin-17F: RKNPKAGVPALQKAGNCPPLEDNTVRVDIRIFNQNQGISVPREFQNRSSSPWDYNITRDPHRFPSEIAEAQCRHSGCINAQGQEDSTMNSVAIQQEILVLRREPQGCSNSFRLEKMLLKVGCTCVKPIVHQAA
dmCherry signal produced ([2]; 0.4 ng/ml): 0.48%
dmCherry signal produced ([2]; 2 ng/ml): 0.81%
dmCherry signal produced ([2]; 10 ng/ml): 3.32%
dmCherry signal produced ([2]; 50 ng/ml): 13.8%

B3: IL-25: IL-25 (IL17E), noncognate ligand for the mADIR-17 system; binds IL-17RA/RB (protein, UniProt Q8VHH8 17-169, looked up)
Interleukin-25: VSLRIQEGCSHLPSCCPSKEQEPPEEWLKWSSASVSPPEPLSHTHHAESCRASKDGPLNSRAISPWSYELDRDLNRVPQDLYHARCLCPHCVSLQTGSHMDPLGNSVPLYHNQTVFYRRPCHGEEGTHRRYCLERRLYRVSLACVCVRPRVMA
responsiveness of mADIR-17 cells (dmCherry signal) to ligand ([2]; noncognate ligand, any doses, after 24 hrs, listed as mIL-17E): not responsive

Results, then the molecule that gave them:

dmCherry signal response of hADIR-17 clone to ligand [1]: dose-dependent response
Molecule: hIL-17F: human IL-17F cytokine, cognate ligand in the hADIR-17 system

dmCherry signal response of hADIR-17 clone to ligand [1]: does not respond
B1: hIL-25: human IL-25, non-cognate ligand for hADIR-17; cognate ligand of the hADIR-25 system (protein, UniProt Q9H293 33-177, looked up)
Interleukin-25: YSHWPSCCPSKGQDTSEELLRWSTVPVPPLEPARPNRHPESCRASEDGPLNSRAISPWRYELDRDLNRLPQDLYHARCLCPHCVSLQTGSHMDPRGNSELLYHNQTVFYRRPCHGEKGTHKGYCLERRLYRVSLACVCVRPRVMG
